Measured values taken from patent US20160024155A1 (published 2016).
Like-named read-outs stand apart in the source and are kept apart here.

Legend:
[1] = target: T1, A/South Carolina/1/1918 (H1N1) hemagglutinin ectodomain (Influenza A virus A/South …)
[2] = target: T1, A/South Carolina/1/1918 (H1N1) …; remark: listed apart in the source
[3] = target: T1, A/South Carolina/1/1918 (H1N1) …; remark: listed apart in the source
[4] = target: T1, A/South Carolina/1/1918 (H1N1) …; remark: listed apart in the source

B1: HB36.1 (Asp47Ser) (designed binder)
chain: MSNAMDGQQLNRLLLEWIGAWDPFGLGKDAYDVEAEAVLQAVYETESAFDLAMRIMWIYAFAFNRPIPFPHAQKLARRLLELKQAASSPLPLE
For B1, the “fold increase in binding affinity relative to HB36” value [1] was ~40 fold, the Kd [2] was 2 to 5 nM and the “fold increase in binding affinity relative to original design (HB36)” value [2] was > 10 fold. It also gave a Kd [3] of 5 nM.

B2: HB80.1 (Met26Thr, Asn36Lys) (designed binder)
chain: MASTRGSGRPWDFSENLAFELALAFTNKDTPDRWAKVAQYVSGRTPEEVKKHYEILVEDIKYIESGKVPFPNYRTTGGNMKTDEKRFRNLKIRLE
Work on B2 yielded a Kd [4] of 7.5 nM and a Kd [3] of 7.5 nM.
